Assay results as given in US8282967B2, “Nitric oxide-releasing particles for nitric oxide therapeutics and biomedical applications” (The University of North Carolina at Chapel Hill, priority 2005, dated 2012).

Assays:
[1] = test system: A2780 ovarian epithelial tumor cells; experiment: MTT cell viability assay, A2780 cells; assay type: cell-based, human; details: small molecule NO donor; cell line not named in the sentence (b369 names OVCAR-3 for PYRRO/NO)
Method: To evaluate the tumoricidal potential of NO donor silica nanoparticles, the cytotoxicity of control and NO-releasing silica particles on immortalized normal (T29) and cancer (A2780 and OVCAR-3) human ovarian epithelial cells was tested. MTT cell viability assays were performed as described below. The 3-(4,5-dimethylthiazol-2-yl-)-2,5-diphenyltetrazoliumbromide (MTT) proliferation assay was employed to determine the relative sensitivities of OVCAR-3 cells to PYRRO/NO. Cells were seeded in 6 replicates at 1−5×10^3 cells/well in 96-well microtiter plates, incubated overnight, and exposed to concentrations of NO donor and control pyrrolidine solutions for 48 h. The NO-releasing medium was then removed and replaced by MTT solution, upon which the cells were incubated for an additional 4 h at 37° C. Following removal of the MTT, DMSO was added, and the absorption of the solution was measured at 560 nm using a microplate reader.
To investigate whether nanoparticle size affects cytotoxicity, two silica nanoparticles (75 mol % MAP3, balance TEOS) of different particle size (80 and 350 nm in diameter, hereafter referred to as s-MAP3 and L-MAP3, respectively) were synthesized. […] Cell viability was determined by incubating T29 and A2780 with non NO-releasing control MAP3 particle (80 nm), s-MAP3, or L-MAP3 (0.4 mg/mL) for 48 h. […]

[2] = Nitric oxide release from diazeniumdiolated materials; assay type: physicochemical
Method: Nitric oxide release of the presently disclosed NO-releasing particles was measured according to the following general procedure. Referring now to FIG. 12, a predetermined volume of phosphate buffer solution (PBS) (pH 7.4, 37° C.) was disposed in a receptacle, e.g., a round-bottomed flask. The receptacle was sealed, leaving an inlet for nitrogen gas and an outlet for a mixture of nitrogen and nitric oxide. The outlet was in fluid communication with a chemiluminescence nitric oxide analyzer. An aliquot of a solution containing a diazeniumdiolated species was injected into the PBS buffer. The chemiluminescence nitric oxide analyzer measured the amount of NO that reacted with ozone (O3) to form excited NO2*, which emitted electromagnetic radiation (hv) as shown in Scheme 2. […] NO2*→NO2+hv Scheme 2. Measurement of NO by chemiluminescence.
NO release from a variety of NO-releasing materials was measured according to the procedure outlined in Example 3. The diazeniumdiolated fumed silica particles were prepared as described in Example 9, below, grafting the fumed silica surface to N-(6-aminohexyl)-3-aminopropyltrimethoxysilane, followed by diazeniumdiolation of the secondary amine with NO gas.

Compound	Cytotoxic NO concentration [1] [mM NO]	NO Released [2] [mmol NO/g]	tv2 [2]
[Na+].[O-]N=[N+]([O-])N1CCCC1 [PYRRO/NO]	4.4		
Proteins (Bovine serum albumin (BSA): diazeniumdiolated bovine serum albumin		0.54	7.2E4. min
